In patent US20250249077A1, “NAMPT FOR WOUND-HEALING AND STIMULATING HAIR GROWTH AND/OR REGROWTH” (Innovative Surgical Regeneration Holdings, LLC, priority 2022, published 2025):
Entries after “also recorded” stand apart in the source; their conditions may differ.

Experiments:
diabetic wounds [1] = test: Single-cell RNA sequencing of NAMPT treated versus control diabetic wounds; type: in vivo, mice
Excerpt: Studies including single-cell RNA sequencing performed by the authors have elucidated the mechanism of action of the disclosed novel treatment on complete skin regeneration and prevention of scarring.
We performed gene ontology (GO) analysis on differentially expressed genes between the fibroblast clusters (clusters #0, #5, #10, and #12) to determine whether specific functions could be assigned to the different fibroblast subpopulations (FIG. 2A-E). […] Next, we performed gene ontology analysis on differentially expressed genes between NAMPT treated versus control Cluster #0 fibroblasts.
We utilized the CellChat package to infer cell-cell communication in NAMPT treated diabetic wounds versus control diabetic wounds.
Impaired cellular proliferation in diabetic wounds leads to delayed granulation tissue formation and delayed reepithelialization. We utilized the Tricycle package40 to determine the impact of NAMPT on cell cycle of diabetic wounds.

diabetic wounds [2] = test: Splinted full thickness excisional wound model, diabetic db/db mice; type: in vivo
Procedure: (§1) Diabetic, aged diabetic, and nondiabetic mice were purchased from JAX labs. Bilateral, symmetric full thickness wounds (which recapitulate complete skin tissue loss) were generated on the murine dorsum using a biopsy punch; wounds were treated with the disclosed therapeutic or the control vehicle.
(§2) NAMPT hydrogel was administered on wounds, control hydrogel served as control.

hair follicles = test: Hair growth after intradermal injection of NAMPT in the skin of mice; type: in vivo
Excerpt: The mean number of hair follicles per field in the NAMiPT group is 33.93. The mean number of hair follicles per field in the control group is 27.47. The difference between the number of hair follicles per field between the NAMPT group and control group is statistically significant (p-value 0.0097 by unpaired t-test (GraphPad Prism 9).

nondiabetic wounds = test: Splinted full thickness excisional wound model, nondiabetic (wildtype) mice; type: in vivo; conditions: versus control hydrogel
Procedure: as §1, §2

[3] = pseudotime lineage analysis, relative to control wounds

B1: NAMPT: Nicotinamide phosphoribosyltransferase protein, rate-limiting enzyme of the salvage NAD synthesis pathway; human sequence SEQ ID NO: 1; recombinant (protein, listed as Homo sapiens)
chain: MNPAAEAEFNILLATDSYKVTHYKQYPPNTSKVYSYFECREKKTENSKLRKVKYEETVFYGLQYILNKYLKGKVVTKEKIQEAKDVYKEHFQDDVFNEKGWNYILEKYDGHLPIEIKAVPEGFVIPRGNVLFTVENTDPECYWLTNWIETILVQSWYPITVATNSREQKKILAKYLLETSGNLDGLEYKLHDFGYRGVSSQETAGIGASAHLVNFKGTDTVAGLALIKKYYGTKDPVPGYSVPAAEHSTITAWGKDHEKDAFEHIVTQFSSVPVSVVSDSYDIYNACEKIWGEDLRHLIVSRSTQAPLIIRPDSGNPLDTVLKVLEILGKKFPVTENSKGYKLLPPYLRVIQGDGVDINTLQEIVEGMKQKMWSIENIAFGSGGGLLQKLTRDLLNCSFKCSYVVTNGLGINVFKDPVADPNKRSKKGRLSLHRTPAGNFVTLEEGKGDLEEYGQDLLHTVFKNGKVTKSYSFDEIRKNAQLNIELEAAHH
Wnt-Fzd ligand-receptor interactions (diabetic wounds [1]; CellChat analysis): increased diversity, number, and strength
gene expression for collagens Col1a1, Col1a2, Col3a1, Col5a2, Col6a1 (diabetic wounds [1]; Cluster #0 fibroblasts, treated vs control): significantly increased
epidermal stem cell markers Krt5, Krt14, Krt15, Trp63, Itgb1, Itga6 (diabetic wounds [1]; Cluster #1 undifferentiated epidermal cells, compared to controls): significantly higher
KEGG oxidative phosphorylation, fatty acid metabolism, TCA cycle, mTOR signaling and pyruvate metabolism pathways (diabetic wounds [1]; KEGG pathway analysis): significantly enhances
proportion of cells in the S phase, G2/M phase, and M phase (diabetic wounds [1]; Tricycle cell cycle analysis, compared to controls): increases
Hgf signaling (diabetic wounds [1]; epidermal stem cell populations): promoted
Krt79+ and Krt6a/Krt6b+ cells (diabetic wounds [1]; pseudotime lineage analysis, relative to control treated wounds): enriched
Krt77+ cells (diabetic wounds [1]; [3]): increased
Pparg+/Fasn+ cells (diabetic wounds [1]; [3]): enriched
immune pathways (MHC-II, CD6, ALCAM, VISTA, MHC-I, CD80) (diabetic wounds [1]; treated diabetic wounds): upregulated
pro-inflammatory pathways, including TNF and IL1 (diabetic wounds [1]; treated diabetic wounds): activation
skin regeneration (diabetic wounds [2]; diabetic wounds, versus control hydrogel): sufficient to regenerate all tissues of the skin
percentage of area staining positive for Keratin15 (diabetic wounds [2]; immunohistochemistry, diabetic wounds vs control, n=3, p=0.0166): significantly increases
percentage of area staining positive for b-catenin (diabetic wounds [2]; immunohistochemistry, diabetic wounds vs control, n=3, p=0.0332): significantly increases
mean number of hair follicles per field (hair follicles; 15 fields at 200× magnification, counted manually, unblinded): 33.93
Difference between means (B − A) ± SEM, hair follicles per field (hair follicles; NAMPT group minus control group, unpaired t test): 6.467 ± 2.329
hair follicles, histological analysis versus control (hair follicles; NAMPT treated mice skin versus control): significant increase; also recorded: increased hair follicles
hair growth (hair follicles; intradermal injection every 48 hours, compared to control): promoted hair growth visibly by 10 and 14 days
skin regeneration (nondiabetic wounds): sufficient to regenerate all tissues of the skin
